Test results from patent publication US20140335192.

Tests used:
Assay in all cases: ITC
Conditions in all cases: 250 uM protein into 40 uM siRNA, unit of K not stated
[1] = test system: DRBD-PTD chimera (RND-DRBD)
[2] = test system: DRBD (double-stranded RNA binding domain)
[3] = test system: PTD (protein transduction domain peptide)

Substance: Luciferase siRNA
- Ka ([1]; Sorensen's phosphate buffer, enthalpy 61.51 kJ/mol): 2.12e+07
- Ka ([1]; deionized water, enthalpy 98.92 kJ/mol): 1e+10
- Ka ([2]; Sorensen's phosphate buffer, enthalpy 1998.83 kJ/mol): 15200
- Ka ([2]; deionized water, enthalpy 201.18 kJ/mol): 10500
- Ka ([3]; Sorensen's phosphate buffer, enthalpy 14.03 kJ/mol): 1.04e+07
- Ka ([3]; deionized water, enthalpy 29.83 kJ/mol): 1e+10
